Source: US20050054014A1
Starred links: 1 amine or outer side, 2 acyl side, 3 side chain; linkers in the order of their positions; H or OH if unused. Non-standard residues stand in square brackets, D forms with d. No end group written: not given here. βAsp = O=C(O)[C@H](CC(=O)[*:2])N[*:1]

Columns and labels:
[1] = molecular target: AG1-1 specific monoclonal antibody F49; assay: competitive ELISA, biotin-GRVRVD-β-SAY on streptavidin plates, free peptide as competitor
[2] = molecular target: polyclonal AG1-1 specific rabbit antiserum; assay: competitive ELISA, BSA-BS^3-AG1-1 coated plates, free peptide as competitor

| fold higher reactivity compared with the αL form [1] [fold] | fold higher reactivity compared with the non-boiled form [2] [fold] | Binder |
| --- | --- | --- |
| > 500 | – | GRVRV[βAsp]SAY [AG1-1 peptide, isomerized (βL) form] |
| – | 7 | GRVRVNSAY (also: heated mixture: Asn6 partly converted to βL, αD and βD forms) [AG1-1 peptide … heated at 90° C. for 4 hours] |
